The values that follow come from US20110206696A1, “METHODS FOR INHIBITING BONE LOSS AND BONE METASTASIS” (THE WASHINGTON UNIVERSITY, priority 2010, published 2011).

Assay [1] deals with T1, CD47 (Homo sapiens, UniProt Q08722). The settings on record: cited from earlier work.
The target in assay [2] is T1, CD47. The settings on record: cited from earlier work. This is another data set of the same source.
The target in assay [3] is SIRP (Homo sapiens, UniProt P78324). The settings on record: cited from earlier work.
Assay [4] deals with CD47−/− macrophages. As to the kind of experiment: In vitro osteoclast differentiation, actin ring and bone resorption assays at high RANKL dose. The format is cell-based, mouse. The settings on record: RANKL increased two-fold to 100 ng/ml; 50 ng/ml M-CSF. The procedure:
A. FACS analysis on WT and CD47-/- total bone marrow. WT and CD47-/- total bone marrow was stained for CD47 and F4/80. B. QPCR graph showing induction of CD47 transcript over the 7-day course of OC differentiation. C. Representative images of day 5 OCs cultured on bone and stained for TRAP (left panel) and cultured on bovine bone and stained for actin rings (right panel) in the presence of 50 ng/ml of M-CSF and 50 ng/ml or 100 ng/ml of RANKL are shown. D. Representative images of day 5 OCs cultured on bone and stained for resorption lacunae in the presence of 50 ng/ml of M-CSF and either 50 ng/ml of RANKL (left panel) and 100 ng/ml of RANKL (right panel) are shown. E. The pit (resorption lacunae) area was measured by histomorphometry. 50 ng/ml RANKL (p=0.04), 100 ng/ml RANKL (p=0.18). To investigate if the OC defect is cell-autonomous in CD474-/- mice, it was first determined if macrophages or OC precursors were decreased in CD47-/- bone marrow. WT and CD47-/- whole bone marrow were stained with CD47-FITC as control and F4/80 as a macrophage marker and carried out flow cytometry. No significant difference in F4/80+cells in CD47-/- bone marrow compared to WT control was observed (FIG. 3A). To test the differentiation of macrophages to OCs, we cultured whole bone marrow in M-CSF alone for 3 days to enrich for macrophages. […]

Assay [5] deals with CD47−/− mice. Briefly: In vivo RANKL injections, serum CTX and calvarial TRAP staining. Details: species or system mouse. The settings on record: RANKL injected subperiostally into midline calvaria of 8-week old mice, once a day for 5 days. How it is done:
A. 100 μg of RANKL was delivered subperiostally onto the midline calvaria of WT (n=5) and CD47−/− (n=5) mice. Serum CTX was measured before and after RANKL injections. WT vs. CD47−/− pre-RANKL p<0.01, WT vs. CD47−/− post-RANKL p=0.74, WT pre-RANKL vs. post-RANKL p=0.03, CD47−/− pre-RANKL vs. post-RANKL p<0.01. B. Representative images of TRAP stained calvarial sections. Arrows point to recruited OCs.
We measured serum CTX pre and post-RANKL injections in these mice. Pre-RANKL injection, CD47−/− mice had lower serum CTX as we have shown before (FIG. 4A). […] Furthermore, direct visualization of OC recruitment by TRAP staining on histological sections of calvarial bone in WT and CD47−/− mice confirmed the CTX results (FIG. 4B). We conclude that a high dose of RANKL rescued the cell-autonomous OC defect in CD47−/− mice.
CTX was measured from WT or CD47−/− mouse fasting serum by using a CTX ELISA system (Nordic Bioscience Diagnostics, Herlev, Denmark).
100 μg of RANKL in a volume of 40 μl was injected subperiostially in the midline calvaria in 8 week-old mice once a day for 5 consecutive days. On the sixth day, serum was collected, mice were sacrificed and the calvarial bone was isolated. TRAP staining was performed on fixed, decalcified and paraffin-embedded calvarial bone.

T1 sequence (Q08722 19-323, species assumed): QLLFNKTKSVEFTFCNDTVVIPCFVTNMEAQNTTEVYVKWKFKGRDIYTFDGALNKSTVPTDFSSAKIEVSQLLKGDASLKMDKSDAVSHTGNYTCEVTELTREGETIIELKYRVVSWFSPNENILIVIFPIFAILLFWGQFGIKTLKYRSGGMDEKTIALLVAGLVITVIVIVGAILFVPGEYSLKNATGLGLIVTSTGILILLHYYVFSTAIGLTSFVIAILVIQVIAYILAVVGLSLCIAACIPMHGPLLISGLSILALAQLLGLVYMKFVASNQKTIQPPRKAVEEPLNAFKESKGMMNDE
Chain of SIRP (P78324 31-504, species assumed): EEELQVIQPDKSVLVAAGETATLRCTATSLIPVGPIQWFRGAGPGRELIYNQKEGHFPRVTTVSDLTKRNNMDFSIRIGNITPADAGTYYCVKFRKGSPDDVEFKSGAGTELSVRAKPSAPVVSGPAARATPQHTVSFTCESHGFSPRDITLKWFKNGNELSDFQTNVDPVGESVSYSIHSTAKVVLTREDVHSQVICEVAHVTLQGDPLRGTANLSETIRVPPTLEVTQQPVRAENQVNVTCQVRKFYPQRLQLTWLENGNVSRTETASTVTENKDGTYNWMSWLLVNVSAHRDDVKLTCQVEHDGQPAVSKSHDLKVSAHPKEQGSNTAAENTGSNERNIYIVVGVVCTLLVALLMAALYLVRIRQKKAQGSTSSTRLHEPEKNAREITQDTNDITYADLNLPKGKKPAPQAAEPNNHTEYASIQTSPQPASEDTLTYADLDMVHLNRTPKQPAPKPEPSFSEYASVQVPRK

Take “p7N3: CD47-binding peptide from the C-terminal module of TSP1, FIRWMYEGKK”: the “CD47 activity / signaling” value in assay [1] is on record as “blocked (or disrupted) CD47 signaling”.

For the molecule IGWKDFTAYR, the “Binding to CD47” value in assay [2] is on record as “found to bind CD47”.

CERVIGTGWVRC: in assay [3], the “Binding to SIRP” value is on record as “binds to SIRP”. Also, the “CD47 activity / signaling” value in assay [1] is listed as “inhibit CD47 activity in vitro”.

B1: RANKL: receptor activator of nuclear factor-KB ligand, cytokine for differentiation of macrophages into osteoclasts (protein, UniProt O14788 140-317, looked up)
Tumor necrosis factor ligand …: IRAEKAMVDGSWLDLAKRSKLEAQPFAHLTINATDIPSGSHKVSLSSWYHDRGWAKISNMTFSNGKLIVNQDGFYYLYANICFRHHETSGDLATEYLQLMVYVTKTSIKIPSSHTLMKGGSTKYWSGNSEFHFYSINVGGFFKLRSGEEISIEVSNPSLLDPDQDATYFGAFKVRDID
modifications: GST tag
Regarding B1, in assay [4], the “OC differentiation of CD47−/− cells” value was “OC differentiation defect was largely rescued”. For the same molecule, the “OC activation as measured by serum CTX, WT vs CD47−/− mice after RANKL” value in assay [5] is given as “not significantly different”.
